The target in the assay is p27^Kip1–His6 (UniProt P46527).

For one substance, in vitro degradation of purified p27^Kip1–His6 (1 μg) by purified β1–His6 (2 μg) results are on record in publication PMC3712487.

UniProt P46527, sequence (P46527 whole entry): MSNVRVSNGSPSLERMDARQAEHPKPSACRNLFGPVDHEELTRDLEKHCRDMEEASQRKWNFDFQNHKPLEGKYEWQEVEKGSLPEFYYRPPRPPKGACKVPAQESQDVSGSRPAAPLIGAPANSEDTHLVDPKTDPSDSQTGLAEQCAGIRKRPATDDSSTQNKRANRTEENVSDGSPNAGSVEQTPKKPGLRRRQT

Substance “β1–His6 (full-length β1, wild type) (from UniProt P28072 1-239) (enzyme)” registered an in vitro degradation of purified p27^Kip1–His6 (1 μg) by purified β1–His6 (2 μg) at 37°C, immunoblot, time course up to 90 min of 40%.
